assay: yeast display, Sf9 membrane polyspecificity reagent, FACS + sequencing; frameworks hold sequencing errors
In short: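 Nanobodies from a synthetic yeast display library (Saccharomyces cerevisiae BJ5465), induced 36–48 hours with galactose, were stained 1 hour at 4 °C with 10% biotinylated, detergent-solubilized Sf9 membrane reagent, enriched on streptavidin microbeads, then FACS-sorted. Anti-HA (expression) and streptavidin (reagent binding) fluorescence set low and high (top ~1%) gates. Polyreactivity labels come from the gate of origin. Genes were colony-PCR amplified, MiSeq 2 × 250 sequenced and filtered by CDR length.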

Row | Sequence | polyreactivity (PSR sort gate)
1 | QVQLVESGGGLVQAGGSLRLSCAATGRIFAYNTMGWYRQAPGKERELVAVITSGGSTNYADSVKGRFTISRDNAKNTVYLQMNSLNPEDTAVYYCAKRPYGRSGGSRYDYWGQGTQVTVSS | high polyreactivity
2 | QVQLVESGGGLVQAGGSLRLSCAATGRIFDYNVMGWSRQAPGKERELVADINGCGGRTNYADSVKGRFTISRDNAKNSVYLQMNSLKPEDTAVYDCAAEWYSYGARSSYGGSRNDYWGQGSQVTVSS | low polyreactivity
3 | QVQLVESGGGLVQAGGSLRLSCAATGRIFGQNAMGWYRQAPGKERELVAAINWSVGSTYYADSVKGRFTISRDNAKNTVYLQMNSLKPEDTGVYYCAAGNLYYAEYDYWGQGTQVTVSS | low polyreactivity
4 | QVQLVESGGGLVQAGGSLRLSCAATGRIFSIYAMGWYRQAPGKERELVAAISGGGSTYYADSVKGRFTISRDNAKNTVYLQMNSLKPEDTAVYYCAALQSYYRYFGYDYWGQGTQVTVSS | low polyreactivity
5 | QVQLVESGGGLVQAGGSLRLSCAATGRIFTRNAMGWYRQAPGKERELVAAISYSGGTTYYADSVKGRFTISRDNAKITVYLQMNSLKPDDTAVYDCAALRPTQRYFTYDYWGHGTQVTVSS | high polyreactivity
6 | QVQLVESGGGLVQAGGSLRLSCAATGRIFWDYAMGWYRQAPGKERELVAANAWGSGRTYYADSVKGRFTISRDNAKNTVNLQMNSLKPEDTAVYYCHAVRYLFIYPRYDYWGQGTQVTVSS | high polyreactivity
7 | QVQLVESGGGLVQAGGSLRLSCAATGRIFYPYAMGWYRQAPGKERELVATIRWRGGSTRYADSVKGRFTISRDNAKNTVFLQMNSLKPEDTAVYYCAAGFKVEPTDLYYWGQGTQVTVSS | high polyreactivity
8 | QVQLVESGGGLVQAGGSLRLSCAATGRTIHGYAMGWYRQAPGKERELVAAITGTGGRTYYADSVKGRFTISRDNAKNTVYLQMNSLKPEDTAVYYCAARPWIKSGYWGQGTQVTVSS | high polyreactivity
9 | QVQLVESGGGLVQAGGSLRLSCAATGSIFIRYAIGWYRHEPGKERELVAAITSTGSTSYADSVKWRFTISRDNAKNTVYLQMNSLKPEDTAVYYCAAAGFWHGYFGYGYWGQGTQVTVSS | low polyreactivity
10 | QVQLVESGGGLVQAGGSLRLSCAATGSIFNVNAMGWYRQAPGKERELVAAISSGGDTYYADSVKGRFTISRDNAKNTVYIQMNSLQPEDTAVYYCAKQSYTLYTLLYDYWGQGTQVTVSS | low polyreactivity
11 | QVQLVESGGGLVQAGGSLRLSCAATGSIFRRNAMGGYRQAPGKERELVAAISSNGGSTYYADSVKGRFTISRDNAKNTVYLQMNSLKPEDTAVYYCNALGRVRYPFDYWGQGTQVTVSS | high polyreactivity
12 | QVQLVESGGGLVQAGGSLRLSCAATGSNLIYVMGGYRQAPGKERELVASITFSGGSTYYADSVKGRFTISRDNAKNTVYLQMNRLKPEDTAVYYCAAVPLWDYKFFYYMLYDYWGQGTQVTVSS | low polyreactivity
13 | QVQLVESGGGLVQAGGSLRLSCAAWSIFYLNAMGLYRQAPGKERELVAAISWGGGSTNYADSVKGRFTISRDNAKNTVYLQMNSLKPEDTAVYYCARTPESLSAREFNYWGQGTEVTVSS | low polyreactivity
14 | QVQLVESGGGLVQAGGSLRLSCAAYGFFFPFYTMGWYRQAPGKERELVAAIRYSAGRTYYADSVKGRFTISRDNAKNTVYLQMNSLKPEDTAVYYCAADAIYSRAWGFDYWGQGTQVTVSS | high polyreactivity
15 | QVQLVESGGGLVQAGGSLRLSCAAYGFISPSYAMGWYRQAPGKERELVAAIRSSDGSTYYADSVKGRFTISRDNAKNTVYLQMNSLKPEDTAVYYCAARRVTSPFGSDSWGQGTQVTVSS | low polyreactivity
16 | QVQLVESGGGLVQAGGSLRLSCAAYGFIVPAYAMGWYRQAPGKERELVAAISWDGGSTYYADSVKGRFTISRDNAKNTVYLQMNSLKPEDTPVYYCAATFFADTWYGWYDYWGQGTQVTVSS | high polyreactivity
17 | QVQLVESGGGLVQAGGSLRLSCAAYGFTFAFYALGRYRQSPGKERELVAAITGSGGSTYYADSVKGRFTISRDNSKNTVYLQMNSLKPEDTAVYYCNTYTYYSRMDYWGQGTQVTVSS | high polyreactivity
18 | QVQLVESGGGLVQAGGSLRLSCAAYGGIFPSYAMGWYRQAPGKERELVAAISRTGGSTYYADSVKGRFTISRDNAKNTVYLQMNSLKPEDTAVYYCAAEWAWYLGVYRRDRMYWGQGTQVTVSS | high polyreactivity
19 | QVQLVESGGGLVQAGGSLRLSCAAYGINFLQYAMGWYRQAPGKDRELVAAITRRGDRTYYADSVKGRFTISRDNAKYTVYLQMISLKPEDTAVYYCAASYWYRDYYYWGQGTQVTVSS | high polyreactivity
20 | QVQLVESGGGLVQAGGSLRLSCAAYGLTFRVYTMGWYRQAPGKERELVAAISTDGGSTYYADSVKGRFTISRDNAKNTVYFQMNSLKPEDTAVYYCAAKWYSYRWTQFDYWGQGTQVSVSS | high polyreactivity
21 | QVQLVESGGGLVQAGGSLRLSCAAYGNIFHRNAMGWYRKAPGKESEVVAAISWSGGSTYYADSVKGRFTISRDNAKNTVYLQMNSLKPEDTAVYYCNAYYYYRFKQSHPGLRSYYWGQGTQVTVSS | high polyreactivity
22 | QVQLVESGGGLVQAGGSLRLSCAAYGNIIYYNAMGWYRQATGKERELVASITWSGGSTYYADSVKGRFTISRDNAKNTVYLQMNSLKPEDTAVYYCAAGYSPPKPYSGGYYYWGQGTQVTVSS | low polyreactivity

Row | Sequence | polyreactivity (PSR sort gate)
23 | QVQLVESGGGLVQAGGSLRLSCAAYGRIFSRNAMGWYRQAPGKERELVAAITSSGGSTYYADSVKGRFTISRDNAKNTVYLQMNSLKPEDTAVYYCNAVSRWWPAGFDYWGQGTQVTVSS | high polyreactivity
24 | QVQLVESGGGLVQAGGSLRLSCAAYGRIFSYYAMGWYRQAPGKERELVATINSGGSTNYADSVKGRFTISRDNAKNTVYLQMNSLKPEDTAVYYCDASPVWWYDYWGQGTQVTVSS | low polyreactivity
25 | QVQLVESGGGLVQAGGSLRLSCAAYGRILRYYAMGWYRQAPGKERELVASITSGGSTYYADSVKGRFTISRDNAKNTVYLQMNSLKPEDTAVYYCAARNIYRVDLSYYAYDYWGQGTQVTVSS | high polyreactivity
26 | QVQLVESGGGLVQAGGSLRLSCAAYGRTFIVNTMGWYRQAPGKERQLVAAITARGGRTYYADSVKGRFTISRDNAKNTVYLQMNSLKPEDTAVYYCNARTPPREAERYYWGQGTQVTVSS | low polyreactivity
27 | QVQLVESGGGLVQAGGSLRLSCAAYGRTFRTNAMGWYRQAPGKERELVAAISTGGGITNYADSVKGRFTISRDNAKNTVYLQMNSLKPEDTAVYYCNADIYTWFQIGGYQYDYWGQGTQVTVSS | low polyreactivity
28 | QVQLVESGGGLVQAGGSLRLSCAAYGRTFSHYAMGWYRQAPGKERELVAGITSGGRTYYADSVKGRFTISRDNAKNTVYLQMNSLKPEDTEVYYCAIRRYTAIWYGYWGQGTQETVSS | high polyreactivity
29 | QVQLVESGGGLVQAGGSLRLSCAAYGRTLRPYAMGWYRQAPGKERELVASIRRDGSTYADSVKGRYTISLDNAKNTVYLQMNSLKPEDTAVYYCAAARGYPLSYWGQGTQVTVSS | low polyreactivity
30 | QVQLVESGGGLVQAGGSLRLSCAAYGSIFDHYAMVWNRQAPGKERELVAAITYSDGSTYYADSVKGRFTISRDNAKNTVYLQMKSLKPEDTAVYYCAAYPRGSQRYNYWGQGTQVTVSS | high polyreactivity
31 | QVQLVESGGGLVQAGGSLRLSCAAYGSIFDVHAMGWNRQAPGKERELVAAISDSGGSTYYADSVKGRFTISRDNAKNTVYLLMKSLKPDDTAVYYCNADWSWFNYYDFDYWGQGTHVTVSS | low polyreactivity
32 | QVQLVESGGGLVQAGGSLRLSCAAYGSIFSTYAMGWYRQAPGKERELVAAISRSGGSTYYADSVKGRFTISRDNAKNTVYLQMNSLKPEDTAVYYCAKVGRRQRYDYWGQGTQVTVSS | high polyreactivity
33 | QVQLVESGGGLVQAGGSLRLSCAAYGSIFWYYAMGWYRQAHGKERELVAAISASGSSTYYADSVKGRLTISRDNAKNPVYLQMNSLNPEDTAVYYCAGTYILYNDWLYHYFPEEYDSWGQGTQVTVSS | low polyreactivity
34 | QVQLVESGGGLVQAGGSLRLSCAAYGSIFYWYAMGWYRQAPGKERELVAAISSSNDSTDYADSVKGRFTISRDNAKNTVYLQMNSLKPEDTAVYYCAALYGTIQYDYWGQGTQVTVSS | low polyreactivity
35 | QVQLVESGGGLVQAGGSLRLSCAAYGSIYSKYAMGWYRQAPGKEREMDAAISWSDGTTYYADSVKGLFTISRDNAKYTVYLQLNSLKPEDTAVYYCNTPPQWLGRYITITFDYWGQGSQVTVSS | low polyreactivity
36 | QVQLVESGGGLVQAGGSLRLSCAAYGSTFGYNAMGWYRQAPGKESELVAAISSTSGSTYYADSVKGRFTISRDNAKNTVYLQMNSLKPEDTAVYYCAADDGDTNAYYFWKPYYYWGQGTQVTVSS | low polyreactivity
37 | QVQLVESGGGLVQAGGSLRLSCAAYGSTFNGNAMGWYRQAPGKERELVARISFDGTSTYYADSVKGRFTISRDNAKNTVYLQMNSLKPEDTAVYYCNVMFPRDHGFPGYGYWGQGTQVTVSS | low polyreactivity
38 | QVQLVESGGGLVQAGGSLRLSCAAYGSTFRRYGMGWYRQAPGKERELVAAISKGGTRTYYADSVKGRFTISRDNVKNTVYLQMNSLKPEDTAVYYCAAAGASSSTPQKEDYWGQGTQVTVSS | high polyreactivity
39 | QVQLVESGGGLVQAGGSLRLSCAAYGSTFSRYAMGWYRQAPGKERELVAAISWGGNTYYADSVKGRFTISRDNAKNTVYLQMNSLKPEDTAVYYCASVGGRFFAPYIWSVDSYDYWGQGTQVTVSS | high polyreactivity
40 | QVQLVESGGGLVQAGGSLRLSCAAYGSTFSWYTMGWYRQAPGKERELVAAISWSGGRTYYADSVKGRFTISRDNAKNTVYLQMNSLKPEDTAVYYCAAYDYRYSLGDYQFYYWGQGTQVTVSS | low polyreactivity
41 | QVQLVESGGGLVQAGGSLRLSCAAYGSTITYYPMGWYRQAPGKERELVAAISGSGRTHYADSVKGRFTISRDNAKNTVYLQMISLNPEDTAVYYCNARQYTYNYAFTRCKYDYWGQGTQVTVSS | high polyreactivity
42 | QVQLVESGGGLVQAGGSLRLSCAAYGYIIDRYAMGWYRPAPGKERELVAAISSDGSTYYADSVKGRFTISRDNAKNTVYLQMNSLKPEDTAVYYGAADGGESAWGGYDYWGQGSQVTVSS | low polyreactivity
43 | QVQLVESGGGLVQAGGSLRLSCAAYGYTFRYNAMGWYRQAPGKERELVATITRGGSTNYADSVKGRFTISRDNAKNTVYLQMNSLKPEDTAVYYCNKEAAPRGFVPSYYGRDYWGQGTQVTVSS | low polyreactivity
